Consider three molecules from paper PMC4161438 (PLoS Pathogens, 2014).

Where no end group is shown, it is not given here.

Test [1] concerns inflammation. The conditions noted are these: ref [14]; cited from earlier work. An excerpt:
(§1) In fact, platelets […] ...

For test [2], the target named is T1, elastase (Homo sapiens, UniProt P08246).
T1 construct: purchased Elastin Products Company, Inc. (Owensville, MO, USA)
T1 sequence (P08246 30-267): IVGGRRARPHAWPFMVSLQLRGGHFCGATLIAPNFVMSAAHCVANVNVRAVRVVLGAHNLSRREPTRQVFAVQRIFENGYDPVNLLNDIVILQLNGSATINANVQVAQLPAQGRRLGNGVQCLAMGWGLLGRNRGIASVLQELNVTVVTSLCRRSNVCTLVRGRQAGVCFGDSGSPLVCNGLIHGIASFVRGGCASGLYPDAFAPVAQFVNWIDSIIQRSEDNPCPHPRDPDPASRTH
Conditions: pathologic conditions associated with neutrophil dysfunction; ref [22]; cited from earlier work. From the text: Neutrophils also release granule contents containing enzymes such as elastase, proteinase-3, and cathepsin G. Elastase, a particularly inflammatory enzyme, interferes with thrombomodulin function, and cleaves TF pathway inhibitor (TFPI), the physiological inhibitor of the extrinsic pathway. […] Elastase also induces proteinase-activated receptor activation, contributes to cytokine production and processing, inactivates metalloprotease inhibitors, deg ...

The test system of test [3] is baboons. Conditions: NETs-related thrombosis, DNase treatment; ref [19]; cited from earlier work.
Text: as §1

Test [4] relates to neutrophils. In words: NETs formation. The format is cell-based, human. The conditions noted are these: DNAse (Dornase alfa) 4 µg/ml; not shown. The method, then: Left panel, non-activated neutrophil (no PMA). Formation of NETs was visualized under confocal microscopy, using antibody against citrullinated histone. Representative experiment is shown (4 different donors). B) Quantification. Performed as described in Methods.
(§2) Whole blood (5 mL collected in 0.5 mL of 3.2% sodium citrate) from healthy donors was diluted in an equal volume of PBS, layered over 5 mL of HISTOPAQUE solution (10771, Sigma Aldrich), and centrifuged for 40 min, at 400×g, at room temperature. The lower interphase having granulocytes was collected and transferred to a 15-ml Falcon tube and resuspended in 10 ml ammonium chloride lysis buffer (1.7 M NH4Cl, […], 1 mM EDTA) to lyse red blood cells. Lysis was carried out twice followed by centrifugation for 10 min at 400×g. […]
Cells were fixed with 500 µl of 4% paraformaldehyde (final concentrations) for 10 min, washed 3 times with PBS and incubated for 10 min with blocking solution (PBS, 10%FBS, 5 mg/ml BSA). […] NETs were quantified according to Farley et al. Briefly, NETs were identified on digitalized images as Hoechst-positive fibrils emanating from cells with an overall length at least twice as long as the cell diameter and were counted for at least two fields of view per variable. Results were expressed as the percentage of NETs/total number of granulocytes.

The test system of test [5] is neutrophils. Put plainly: Neutrophil-induced coagulation. The format is cell-based, human. Conditions: DNAse (Dornase alfa) 4 µg/ml, 1 h, then PMA 50 nM, 3 h. The method, then: A) Platelet aggregation. Washed human platelets were stimulated with elastase only (500 nM, left panel), or cathepsin G only (110 nM, middle tracing), or elastase followed by cathepsin G (right tracing). […] Aggregation response was monitored by turbidimetry using a Lumi-Aggregometer. D) TFPI cleavage. […] After 2 h, reactions were stopped by addition of LDS loading buffer (under reducing conditions, 10 mM DTT), boiled for 5 min, and loaded in 4–12% Nu-PAGE gel. Gels were Coomassie Blue-stained. E) Neutrophil-induced coagulation. […] Fifty µl of this suspension was added to 50 µl of plasma, and reactions were started by addition of CaCl2 (12.5 mM, final concentration)(*, p<0.05).
as §2, with “400×g. Neutrophils were washed with PBS and resuspended at 1×10^6 cells/mL in high glucose DMEM (GIBCO). Neutrophils were kept on ice.” for “400×g.”

The test system of test [6] is NETs formation. Also noted: method as in 2 sources, one per row (each row's own in cited_ref): ref [38], [55] = [38]; PMID 20974816; doi:10.1083/jcb.201006052; 38 Papayannopoulos V , Metzler KD , Hakkim A , Zychlinsky A ( 2010 ) Neutrophil elastase and myeloperoxidase regulate the formation of neutrophil extracellular traps . J Cell Biol 191 : 677 – 691 . 20 || [55]; PMID 23635526; doi:10.1159/000348676; 55 Braian C , Hogea V , Stendahl O ( 2013 ) Mycobacterium tuberculosis- induced neutrophil extracellular traps activate human macrophages . J Innate Immun 5 : 591 – 602 . 23635526 10.1159/000348676 PM ||| ref [56] = [56]; PMID 23002442; doi:10.4049/jimmunol.1201167; 56 Farley K , Stolley JM , Zhao P , Cooley J , Remold-O'Donnell E ( 2012 ) A serpinB1 regulatory mechanism is essential for restricting neutrophil extracellular trap generation . J Immunol 189 : 4574. The conditions noted are these: exogenously added, internalized, translocates into nucleus; ref [56]; cited from earlier work.

Consider “Elafin: potent elastase inhibitor purified from bronchial secretions (AQEPVKGPVSTKPGSCPIILIRCAMLNPPNRCLKDTDCPGIKKCCEGSCGMACFVPQ; ends and bridges not checked; cysteine pairing not given here; UniProt P19957 61-117, looked up)”, for which the “inflammation in several in vivo models” value in test [1] is “blocks inflammation”. For the same molecule, in test [2], the clinical trial results is listed as “mixed results”.

B1: DNAse: DNAse (Dornase alfa, Genentech Inc.) (protein, UniProt P24855 23-282, looked up)
Deoxyribonuclease-1: LKIAAFNIQTFGETKMSNATLVSYIVQILSRYDIALVQEVRDSHLTAVGKLLDNLNQDAPDTYHYVVSEPLGRNSYKERYLFVYRPDQVSAVDSYYYDDGCEPCGNDTFNREPAIVRFFSRFTEVREFAIVPLHAAPGDAVAEIDALYDVYLDVQEKWGLEDVMLMGDFNAGCSYVRPSQWSSIRLWTSPTFQWLIPDSADTTATPTHCAYDRIVVAGMLLRGAVVPDSALPFNFQAAYGLSDQLAQAISDHYPVEVMLK
As to B1, the thrombosis in baboons result in test [3] is “prevented”. Further, the NETs-associated fluorescence signal result in test [4] is on record as “completely abrogated”. Also, the “pro-coagulant activity of PMA-activated neutrophils” value in test [5] was “reversed”.

B2: serpin B1: exogenously added elastase inhibitor (protein, UniProt P30740 1-379, looked up)
Leukocyte elastase inhibitor: MEQLSSANTRFALDLFLALSENNPAGNIFISPFSISSAMAMVFLGTRGNTAAQLSKTFHFNTVEEVHSRFQSLNADINKRGASYILKLANRLYGEKTYNFLPEFLVSTQKTYGADLASVDFQHASEDARKTINQWVKGQTEGKIPELLASGMVDNMTKLVLVNAIYFKGNWKDKFMKEATTNAPFRLNKKDRKTVKMMYQKKKFAYGYIEDLKCRVLELPYQGEELSMVILLPDDIEDESTGLKKIEEQLTLEKLHEWTKPENLDFIEVNVSLPRFKLEESYTLNSDLARLGVQDLFNSSKADLSGMSGARDIFISKIVHKSFVEVNEEGTEAAAATAGIATFCMLMPEENFTADHPFLFFIRHNSSGSILFLGRFSSP
Take B2: the NETs formation entry in test [6] is “inhibits NETs formation”.
